The values that follow are results of earlier work, collected in publication PMC3742252.

The target in this data set is TSH (Bos taurus) (UniProt P01217).

What is called Kd is the equilibrium constant for the complex coming apart. In the case of “thyroid-stimulating hormone receptor (from UniProt Q8SPP9)”, the dissociation constant Kd is 1 nM.
